Reference: US20060115876A1
Values belong to the substance of their own block, whether it stands above or below them.

Key:
[1] = target: von Willebrand factor (vWF) (UniProt P04275); assay: vWF binding ELISA divided by total antigen ELISA, relative to BDD
[2] = target: von Willebrand factor (vWF) (UniProt P04275); assay: vWF binding ELISA (FVIII bound to vWf in severe hemophilic plasma, captured on anti-vWf mAb) divided by total antigen ELISA, relative to BDD
[3] = target: von Willebrand factor (vWF) (UniProt P04275); assay: vWF binding ELISA value divided by total antigen ELISA value
[4] = target: von Willebrand factor (vWF) (UniProt P04275); assay: vWF binding ELISA divided by total antigen ELISA
[5] = target: von Willebrand factor (vWF) (UniProt P04275); assay: vWF binding ELISA, FVIII bound to vWf in severe hemophilic plasma
[6] = target: von Willebrand factor (vWF) (UniProt P04275); assay: vWF binding ELISA divided by total antigen ELISA, relative to starting KG-2

Chain of B domain deleted FVIII (BDD) (P00451 other isoform, or with tags, fused parts or gaps limits assumed): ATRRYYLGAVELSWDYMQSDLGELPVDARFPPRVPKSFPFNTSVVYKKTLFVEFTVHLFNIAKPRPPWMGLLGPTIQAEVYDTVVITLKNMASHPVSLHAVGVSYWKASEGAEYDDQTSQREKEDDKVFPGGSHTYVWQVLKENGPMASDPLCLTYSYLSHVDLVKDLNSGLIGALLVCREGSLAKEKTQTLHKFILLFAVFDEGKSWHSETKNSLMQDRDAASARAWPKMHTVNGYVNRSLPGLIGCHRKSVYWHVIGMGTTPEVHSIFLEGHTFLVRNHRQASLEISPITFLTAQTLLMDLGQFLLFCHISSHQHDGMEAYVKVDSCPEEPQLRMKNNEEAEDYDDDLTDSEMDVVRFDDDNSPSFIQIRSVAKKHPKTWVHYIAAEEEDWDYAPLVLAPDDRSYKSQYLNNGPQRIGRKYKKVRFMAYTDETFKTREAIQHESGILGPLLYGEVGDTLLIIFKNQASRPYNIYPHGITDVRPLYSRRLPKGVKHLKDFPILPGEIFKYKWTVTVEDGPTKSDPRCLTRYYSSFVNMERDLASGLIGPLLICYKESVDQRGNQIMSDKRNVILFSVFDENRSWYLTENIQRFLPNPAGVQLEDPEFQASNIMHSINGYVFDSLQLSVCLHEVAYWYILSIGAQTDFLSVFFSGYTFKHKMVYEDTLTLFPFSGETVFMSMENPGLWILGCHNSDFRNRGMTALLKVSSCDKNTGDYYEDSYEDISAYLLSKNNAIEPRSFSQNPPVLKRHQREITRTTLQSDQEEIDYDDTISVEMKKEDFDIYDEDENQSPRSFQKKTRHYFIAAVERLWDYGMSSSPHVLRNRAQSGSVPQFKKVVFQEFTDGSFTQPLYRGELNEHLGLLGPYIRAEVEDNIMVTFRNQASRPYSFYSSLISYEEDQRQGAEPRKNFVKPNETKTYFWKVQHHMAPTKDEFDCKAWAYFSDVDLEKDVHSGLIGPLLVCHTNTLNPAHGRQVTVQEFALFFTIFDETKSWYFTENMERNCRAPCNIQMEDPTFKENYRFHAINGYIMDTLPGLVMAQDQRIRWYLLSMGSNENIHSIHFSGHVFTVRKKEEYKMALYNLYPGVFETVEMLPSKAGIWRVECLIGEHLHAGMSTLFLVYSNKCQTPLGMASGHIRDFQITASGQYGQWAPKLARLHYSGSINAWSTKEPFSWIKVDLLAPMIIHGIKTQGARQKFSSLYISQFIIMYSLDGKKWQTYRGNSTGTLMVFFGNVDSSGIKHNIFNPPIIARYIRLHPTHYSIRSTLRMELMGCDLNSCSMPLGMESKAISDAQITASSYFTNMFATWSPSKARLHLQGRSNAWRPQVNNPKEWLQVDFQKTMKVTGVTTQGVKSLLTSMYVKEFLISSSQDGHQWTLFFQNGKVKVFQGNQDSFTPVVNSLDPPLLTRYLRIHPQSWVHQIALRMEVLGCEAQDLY
Chain of PEG2 red (PEG2 mutein treated with reductant followed by removal of reductant) (P00451 other isoform, or with tags, fused parts or gaps mutant): as the sequence (P00451 other isoform, or with tags, fused parts or gaps limits assumed) above, with L491C counted along it

Substance: PEG2-5 kD PEG (L491C BDD FVIII PEGylated with 5 kD PEG-maleimide) (from UniProt P00451 20-2351)
percent specific activity vWF/TAE relative to BDD [1]: 125%

Substance: PEG2 red (PEG2 mutein treated with reductant followed by removal of reductant) (from UniProt P00451 20-2351)
percent specific activity vWF/TAE relative to BDD [1]: 98%

Substance: B domain deleted FVIII (BDD) (from UniProt P00451 20-2351)
percent specific activity vWF/TAE relative to BDD [2]: 100% | vWF/TAE (specific vWF binding activity) [3]: 1 vWF/TAE

Substance: PEG2-12 kD PEG (L491C BDD FVIII PEGylated with 12 kD PEG-maleimide) (from UniProt P00451 20-2351)
percent specific activity vWF/TAE relative to BDD [1]: 71%

Substance: wildtype full length FVIII (KG-2) (from UniProt P00451 20-2351)
vWF/TAE (ratio (vWF ELISA ug/mL / TAE ug/mL)) [4]: 0.32 | vWF ELISA (FVIII bound to vWf) [5]: 0.42 µg/mL | % Start (vWF/TAE) [6]: 100%

Substance: PEG2 mutein (L491C BDD FVIII) (from UniProt P00451 20-2351)
percent specific activity vWF/TAE relative to BDD [1]: 138%

Substance: PEG2-33 kD PEG (L491C BDD FVIII PEGylated with 33 kD PEG-maleimide) (from UniProt P00451 20-2351)
percent specific activity vWF/TAE relative to BDD [1]: 59%

Further lines, results first:

vWF/TAE (ratio (vWF ELISA ug/mL / TAE ug/mL)) [4]: 0.3 | vWF ELISA (FVIII bound to vWf) [5]: 0.19 µg/mL | % Start (vWF/TAE) [6]: 94%
Substance: KG-2-22 kD PEG (wildtype full length FVIII PEGylated with 22 kD PEG) (from UniProt P00451 20-2351)

vWF/TAE (ratio (vWF ELISA ug/mL / TAE ug/mL)) [4]: 0.32 | vWF ELISA (FVIII bound to vWf) [5]: 0.19 µg/mL | % Start (vWF/TAE) [6]: 100%
Substance: KG-2-30 kD PEG (wildtype full length FVIII PEGylated with 30 kD PEG) (from UniProt P00451 20-2351)

percent specific activity vWF/TAE relative to BDD [1]: 87%
Substance: PEG2-22 kD PEG (L491C BDD FVIII PEGylated with 22 kD PEG-maleimide) (from UniProt P00451 20-2351)

percent specific activity vWF/TAE relative to BDD [1]: 57%
Substance: PEG2-43 kD PEG (L491C BDD FVIII PEGylated with 43 kD PEG-maleimide) (from UniProt P00451 20-2351)

percent specific activity vWF/TAE relative to BDD [1]: 90%
Substance: PEG6-33 kD PEG (K1808C BDD FVIII PEGylated with 33 kD PEG-maleimide) (from UniProt P00451 20-2351)

percent specific activity vWF/TAE relative to BDD [1]: 100%
Substance: PEG6 mutein (K1808C BDD FVIII) (from UniProt P00451 20-2351)
